# From IntAct's records for PubMed 18812496
# B1: Plastid division protein PDV2 (Arabidopsis thaliana (Mouse-ear cress)), Q9XII1 (parent)
# chain: MEDEEGIGLILARATELRLKISDCIDNSSTTVSDNGDGNEDLSPGEGRKSEIIGNQDKDFDSISSEDVDEAEAERLLRIRDALEALESQLASLQNLRQRQQYEKQLALSEIDYSRKMLLEKLKEYKGKDFEVLRETTTFAGERVDYENDLLLPPYPVHPPLSLGLDNNNGYLSHLPSKKKSDANGFGSGHVRNEAEAKSPNGGSGGSSHGVIRFLGSVAKIVLPIIGVISLLSASGYGPEMRKRGASLNLFGLLPHRATRGKRTPNQCPPGKVLVIEDGEARCLVKERVEIPFDSVVAKRDVTYGYG
# partner: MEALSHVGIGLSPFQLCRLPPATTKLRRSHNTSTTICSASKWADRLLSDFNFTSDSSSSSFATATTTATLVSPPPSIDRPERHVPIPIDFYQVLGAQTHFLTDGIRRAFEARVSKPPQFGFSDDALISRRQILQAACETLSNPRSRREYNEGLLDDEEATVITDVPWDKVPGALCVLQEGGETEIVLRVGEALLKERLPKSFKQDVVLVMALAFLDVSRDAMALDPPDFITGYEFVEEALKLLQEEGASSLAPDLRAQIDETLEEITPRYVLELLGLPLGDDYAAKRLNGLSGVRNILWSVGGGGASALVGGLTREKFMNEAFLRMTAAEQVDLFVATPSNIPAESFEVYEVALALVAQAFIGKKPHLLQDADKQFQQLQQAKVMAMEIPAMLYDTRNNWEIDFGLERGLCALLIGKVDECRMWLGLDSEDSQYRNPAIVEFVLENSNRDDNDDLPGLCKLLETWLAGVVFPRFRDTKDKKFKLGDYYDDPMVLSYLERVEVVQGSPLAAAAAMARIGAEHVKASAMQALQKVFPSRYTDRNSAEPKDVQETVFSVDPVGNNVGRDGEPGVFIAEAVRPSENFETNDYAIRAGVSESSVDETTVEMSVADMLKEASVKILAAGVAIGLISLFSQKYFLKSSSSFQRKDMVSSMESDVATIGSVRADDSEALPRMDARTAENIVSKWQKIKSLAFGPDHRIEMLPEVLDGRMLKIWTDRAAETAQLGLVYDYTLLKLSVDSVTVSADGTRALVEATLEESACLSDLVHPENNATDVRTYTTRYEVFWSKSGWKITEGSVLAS
# Variants of: B1
# Conditions: with arc6_arath ARC6, Q9FIG9
row,Variant,effect of a mutation on the interaction
1,MEDEEGIGLILARATELRLKISDCIDNSSTTVSDNGDGNEDLSPGEGRKSEIIGNQDKDFDSISSEDVDEAEAERLLRIRDALEALESQLASLQNLRQRQQYEKQLALSEIDYSRKMLLEKLKEYKGKDFEVLRETTTFAGERVDYENDLLLPPYPVHPPLSLGLDNNNGYLSHLPSKKKSDANGFGSGHVRNEAEAKSPNGGSGGSSHGVIRFLGSVAKIVLPIIGVISLLSASGYGPEMRKRGASLNLFGLLPHRATRGKRTPNQCPPGKVLVIEDGEARCLVKERVEIPFDSVVAKRDVTYGYD [G307D],decreasing interaction
